{"source": "patent US10155025B2", "about": "“Method for inhibiting or reducing transplant rejection by adminstration of interleukin-34” (INSERM (INSTITUT NATIONAL DE LA SANTÉ ET DE LA RECHERCHE …, priority 2014, dated 2018)", "system": "CD4+CD25- T cells stimulated with allogeneic pDCs", "test": "MLR: suppression of CFSE-labelled CD4+CD25- T cell proliferation in response to allogeneic pDCs", "format": "cell-based, rat", "settings": "dose dependent, 0.1 to 2 μg/ml, 6 days of culture", "experimental": "FIG. 3: Detection of IL-34 using an AAV-IL-34 and inhibition of allo-T cell responses. A. Supernatants of AAV-IL-34 or AAV-GFP-transduced cells were tested for suppression of CD4^+CD25^− T cell proliferation in response to allogeneic pDCs and analysed by flow cytometry for CFSE dilution after 5 days of culture. CD8^+ Tregs were used as positive control of suppression. n=3 in duplicates; Results are expressed as mean±SEM of normalized percentage of proliferation vs. proliferation in the absence of CD8^+ Tregs (100%). […] B. Serial dilution of sera from AAV-IL-34 or AAV-GFP-treated rats or naive animals were tested for suppression of CD4^+CD25^− T cell proliferation in response to allogeneic pDCs and analysed by flow cytometry for CFSE dilution after 5 days of culture. CD8^+ Tregs were used as positive control of suppression. n=3 in duplicates; Results are expressed as mean±SEM of normalized percentage of proliferation vs. proliferation in the absence of CD8^+ Tregs (100%). *, p<0.01; **, p<0.001; ***, p<0.0001 vs. sera from naïve animals.\nFIG. 6: M-CSF mediated dose dependent suppression of anti-donor effector CD4^÷CD25^− T cells responses. (A) FACS Aria-sorted CD8^+CD45RC^low Tregs from spleen of naive or 120 days old AdCD40Ig-treated recipients (n=6) were analysed for M-CSF mRNA expression by quantitative RT-PCR. *p<0.05. […]"}
{"molecule": "M-CSF: M-CSF protein (ab56288, ABCAM), macrophage colony stimulating factor (protein, UniProt Q8JZQ0 33-566, looked up) Macrophage colony-stimulating …: EVSEHCSHMIGNGHLQILQQLIDSQMETACLIEYKFVDQEQLDDPVCYLKKAFVLVQVIIEETMRFKDNTPNANATERLQELSMKLNSCFIKDYKEQNEACVQTYKESPLRLLEKIKNFFNETKNFLEKDWNIFSKNCNDSFAKCSSRDVVTKPDCNCLYPKATPSSDLASASPHQPPAPSMAPLADLAWDDSQRTEGSSLLPSDLPLRIEDPGSAKQRPPRSTCQTLESTEQPNHEDPQPHPSAGAPIPGVEDIIESSMGTNWVLEEASGEASEGFLTQERKFSPSNPVGGSIQAETDRPWARSASSPFPKLTEDQQPTNITDTPLTEVNPMRPTGQTLNNTPEKTDGSSTLREDQQEPRSPHFATLNPQRVGNSATPYAKLLPPKSHSWGIVLPLGELEGKKSTRDRRSPAELKGGPASEGAARPVAQSTRDRRSPAELKGGPASEGAARPVARFNSIPLTDTGSSIQDPQTSAFVFWVLGIILVLLAVGGLLFYSWKRRSHRDPRTLDSSVGRPEGSSLAQDEDRQVELPV", "values": [{"measurement": "suppression of CD4+CD25- T cells proliferation", "value": "up to 93.5%"}]}
